{"source": "paper PMC7313238", "about": "(Journal of the American Society for Mass Spectrometry, 2020)", "proteins": {"B1": {"name": "BX1 from Zea mays (zmBX1), wild type (enzyme)", "chain": "SRPVSDTMAALMAKGKTAFIPYITAGDPDLATTAEALRLLDGCGADVIELGVPCSDPYIDGPIIQASVARALASGTTMDAVLEMLREVTPELSCPVVLLSYYKPIMSRSLAEMKEAGVHGLIVPDLPYVAAHSLWSEAKNNNLELVLLTTPAIPEDRMKEITKASEGFVYLVSVNGVTGPRANVNPRVESLIQEVKKVTNKPVAVGFGISKPEHVKQIAQWGADGVIIGSAMVRQLGEAASPKQGLRRLEEYARGMKNALP"}}, "target": "the molecule itself", "experiment": "SEC + native MS"}
{"protein": "B1", "values": [{"measurement": "stoichiometry N", "result": 2}]}
